Tests used:
[1] = molecular target: Type 1 human interferon receptor complex (human) (UniProt P17181)
[2] = molecular target: Type 1 human interferon receptor complex (human) (UniProt P17181); assay: 125I-ligand binding to T98G cells at +4° C., Scatchard analysis, high affinity component

Substance	antiviral specific activity (EMCV on T98G cells) [1] [U/mg protein]	Kd [2] [pM]
IFN-alpha1 Nδ4 (ligand)	7.1e+06	–
IFN-alphaCon1 (ligand)	3e+09	7.7

Reference: patent US5684129
